Measurements: US20170190753A1 (LABORATOIRE FRANCAIS DU FRACTIONNEMENT ET DES …, published 2017)

B1: pCEP4-1NT13-14CT20 (other)
chain: EDCNELPPRRNTEILTGSWSDQTYPEGTQAIYKCRPGYRSLGNVIMVCRKGEWVALNPLRKCQKRPCGHPGDTPFGTFTLTGGNVFEYGVKAVYTCNEGYQLLGEINYRECDTDGWTNDIPICEVVKCLPVTAPENGKIVSSAMEPDREYHFGQAVRFVCNSGYKIEGDEEMHCSDDGFWSKEKPKCVEISCKSPDVINGSPISQKIIYKENERFQYKCNMGYEYSERGDAVCTESGWRPLPSCEEKSCDNPYIPNGDYSPLRIKHRTGDEITYQCRNGFYPATRGNTAKCTSTGWIPAPRCTLKPCDYPDIKHGGLYHENMRRPYFPVAVGKYYSYYCDEHFETPSGSYWDHIHCTQDGWSPAVPCLRKCYFPYLENGYNQNHGRKFVQGKSIDVACHPGYALPKAQTTVTCMENGWSPTPRCIRVKTCSKSSIDIENGFISESQYTYALKEKAKYQCKLGYVTADGETSGSITCGKDGWSAQPTCIKSCDIPVFMNARTKNDFTWFKLNDTLDYECHDGYESNTGSTTGSIVCGYNGWSDLPICYERECELPKIDVHLVPDRKKDQYKVGEVLKFSCKPGFTIVGPNSVQCYHFGLSPDLPICKEQVQSCGPPPELLNGNVKEKTKEEYGHSEVVEYYCNPRFLMKGPNKIQCVDGEWTTLPVCIVEESTCGDIPELEHGWAQLSSPPYYYGDSVEFNCSESFTMIGHRSITCIHGVWTQLPQCVAIDKLKKCKSSNLIILEEHLKNKKEFDHNSNIRYRCRGKEGWIHTVCINGRWDPEVNCSMAQIQLGASGCPPPPQIPNSHNMTTTLNYRDGEKVSVLCQENYLIQEGEEITCKDGRWQSIPLCVEKIPCSQPPQIEHGTINSSRSSQESYAHGTKLSYTCEGGFRISEENETTCYMGKWSSPPQCEGLPCKSPPEISHGVVAHMSDSYQYGEEVTYKCFEGFGIDGPAIAKCLGEKWSHPPSCIKTDCLSLPSFENAIPMGEKKDVYKAGEQVTYTCATYYKMDGASNVTCINSRWTGRPTCRDTSCVNPPTVQNAYIVSRQMSKYPSGERVRYQCRSPYEMFGDEEVMCLNGNWTEPPQCKDSTGKCGPPPPIDNGDITSFPLSVYAPASSVEYQCQNLYQLEGNKRITCRNGQWSEPPKCLHPCVISREIMENYNIALRWTAKQKLYSRTGESVEFVCKRGYRLSSRSHTLRTTCWDGKLEYPTCAKRGGSGHHHHHH
B2: pCEP4-1NT4-8CT20 (other)
chain: EDCNELPPRRNTEILTGSWSDQTYPEGTQAIYKCRPGYRSLGNVIMVCRKGEWVALNPLRKCQKRPCGHPGDTPFGTFTLTGGNVFEYGVKAVYTCNEGYQLLGEINYRECDTDGWTNDIPICEVVKCLPVTAPENGKIVSSAMEPDREYHFGQAVRFVCNSGYKIEGDEEMHCSDDGFWSKEKPKCVEISCKSPDVINGSPISQKIIYKENERFQYKCNMGYEYSERGDAVCTESGWRPLPSCEEKSGASGCSKSSIDIENGFISESQYTYALKEKAKYQCKLGYVTADGETSGSITCGKDGWSAQPTCIKSCDIPVFMNARTKNDFTWFKLNDTLDYECHDGYESNTGSTTGSIVCGYNGWSDLPICYERECELPKIDVHLVPDRKKDQYKVGEVLKFSCKPGFTIVGPNSVQCYHFGLSPDLPICKEQVQSCGPPPELLNGNVKEKTKEEYGHSEVVEYYCNPRFLMKGPNKIQCVDGEWTTLPVCIVEESTCGDIPELEHGWAQLSSPPYYYGDSVEFNCSESFTMIGHRSITCIHGVWTQLPQCVAIDKLKKCKSSNLIILEEHLKNKKEFDHNSNIRYRCRGKEGWIHTVCINGRWDPEVNCSMAQIQLCPPPPQIPNSHNMTTTLNYRDGEKVSVLCQENYLIQEGEEITCKDGRWQSIPLCVEKIPCSQPPQIEHGTINSSRSSQESYAHGTKLSYTCEGGFRISEENETTCYMGKWSSPPQCEGLPCKSPPEISHGVVAHMSDSYQYGEEVTYKCFEGFGIDGPAIAKCLGEKWSHPPSCIKTDCLSLPSFENAIPMGEKKDVYKAGEQVTYTCATYYKMDGASNVTCINSRWTGRPTCRDTSCVNPPTVQNAYIVSRQMSKYPSGERVRYQCRSPYEMFGDEEVMCLNGNWTEPPQCKDSTGKCGPPPPIDNGDITSFPLSVYAPASSVEYQCQNLYQLEGNKRITCRNGQWSEPPKCLHPCVISREIMENYNIALRWTAKQKLYSRTGESVEFVCKRGYRLSSRSHTLRTTCWDGKLEYPTCAKRGGSGHHHHHH
B3: pCEP4-1NT4-10CT20 (other)
chain: EDCNELPPRRNTEILTGSWSDQTYPEGTQAIYKCRPGYRSLGNVIMVCRKGEWVALNPLRKCQKRPCGHPGDTPFGTFTLTGGNVFEYGVKAVYTCNEGYQLLGEINYRECDTDGWTNDIPICEVVKCLPVTAPENGKIVSSAMEPDREYHFGQAVRFVCNSGYKIEGDEEMHCSDDGFWSKEKPKCVEISCKSPDVINGSPISQKIIYKENERFQYKCNMGYEYSERGDAVCTESGWRPLPSCEEKSGASGCELPKIDVHLVPDRKKDQYKVGEVLKFSCKPGFTIVGPNSVQCYHFGLSPDLPICKEQVQSCGPPPELLNGNVKEKTKEEYGHSEVVEYYCNPRFLMKGPNKIQCVDGEWTTLPVCIVEESTCGDIPELEHGWAQLSSPPYYYGDSVEFNCSESFTMIGHRSITCIHGVWTQLPQCVAIDKLKKCKSSNLIILEEHLKNKKEFDHNSNIRYRCRGKEGWIHTVCINGRWDPEVNCSMAQIQLCPPPPQIPNSHNMTTTLNYRDGEKVSVLCQENYLIQEGEEITCKDGRWQSIPLCVEKIPCSQPPQIEHGTINSSRSSQESYAHGTKLSYTCEGGFRISEENETTCYMGKWSSPPQCEGLPCKSPPEISHGVVAHMSDSYQYGEEVTYKCFEGFGIDGPAIAKCLGEKWSHPPSCIKTDCLSLPSFENAIPMGEKKDVYKAGEQVTYTCATYYKMDGASNVTCINSRWTGRPTCRDTSCVNPPTVQNAYIVSRQMSKYPSGERVRYQCRSPYEMFGDEEVMCLNGNWTEPPQCKDSTGKCGPPPPIDNGDITSFPLSVYAPASSVEYQCQNLYQLEGNKRITCRNGQWSEPPKCLHPCVISREIMENYNIALRWTAKQKLYSRTGESVEFVCKRGYRLSSRSHTLRTTCWDGKLEYPTCAKRGGSGHHHHHH
B4: pCEP4-1NT9-12CT20 (other)
chain: EDCNELPPRRNTEILTGSWSDQTYPEGTQAIYKCRPGYRSLGNVIMVCRKGEWVALNPLRKCQKRPCGHPGDTPFGTFTLTGGNVFEYGVKAVYTCNEGYQLLGEINYRECDTDGWTNDIPICEVVKCLPVTAPENGKIVSSAMEPDREYHFGQAVRFVCNSGYKIEGDEEMHCSDDGFWSKEKPKCVEISCKSPDVINGSPISQKIIYKENERFQYKCNMGYEYSERGDAVCTESGWRPLPSCEEKSCDNPYIPNGDYSPLRIKHRTGDEITYQCRNGFYPATRGNTAKCTSTGWIPAPRCTLKPCDYPDIKHGGLYHENMRRPYFPVAVGKYYSYYCDEHFETPSGSYWDHIHCTQDGWSPAVPCLRKCYFPYLENGYNQNHGRKFVQGKSIDVACHPGYALPKAQTTVTCMENGWSPTPRCIRVKTCSKSSIDIENGFISESQYTYALKEKAKYQCKLGYVTADGETSGSITCGKDGWSAQPTCIKSCDIPVFMNARTKNDFTWFKLNDTLDYECHDGYESNTGSTTGSIVCGYNGWSDLPICYEREGASGCGDIPELEHGWAQLSSPPYYYGDSVEFNCSESFTMIGHRSITCIHGVWTQLPQCVAIDKLKKCKSSNLIILEEHLKNKKEFDHNSNIRYRCRGKEGWIHTVCINGRWDPEVNCSMAQIQLCPPPPQIPNSHNMTTTLNYRDGEKVSVLCQENYLIQEGEEITCKDGRWQSIPLCVEKIPCSQPPQIEHGTINSSRSSQESYAHGTKLSYTCEGGFRISEENETTCYMGKWSSPPQCEGLPCKSPPEISHGVVAHMSDSYQYGEEVTYKCFEGFGIDGPAIAKCLGEKWSHPPSCIKTDCLSLPSFENAIPMGEKKDVYKAGEQVTYTCATYYKMDGASNVTCINSRWTGRPTCRDTSCVNPPTVQNAYIVSRQMSKYPSGERVRYQCRSPYEMFGDEEVMCLNGNWTEPPQCKDSTGKCGPPPPIDNGDITSFPLSVYAPASSVEYQCQNLYQLEGNKRITCRNGQWSEPPKCLHPCVISREIMENYNIALRWTAKQKLYSRTGESVEFVCKRGYRLSSRSHTLRTTCWDGKLEYPTCAKRGGSGHHHHHH

target: C3 convertase complex (UniProt P01024 23-1663; P00751 260-764); assay: cell-based or functional assay
Sequence (P01024 23-1663, chain 1 of 2): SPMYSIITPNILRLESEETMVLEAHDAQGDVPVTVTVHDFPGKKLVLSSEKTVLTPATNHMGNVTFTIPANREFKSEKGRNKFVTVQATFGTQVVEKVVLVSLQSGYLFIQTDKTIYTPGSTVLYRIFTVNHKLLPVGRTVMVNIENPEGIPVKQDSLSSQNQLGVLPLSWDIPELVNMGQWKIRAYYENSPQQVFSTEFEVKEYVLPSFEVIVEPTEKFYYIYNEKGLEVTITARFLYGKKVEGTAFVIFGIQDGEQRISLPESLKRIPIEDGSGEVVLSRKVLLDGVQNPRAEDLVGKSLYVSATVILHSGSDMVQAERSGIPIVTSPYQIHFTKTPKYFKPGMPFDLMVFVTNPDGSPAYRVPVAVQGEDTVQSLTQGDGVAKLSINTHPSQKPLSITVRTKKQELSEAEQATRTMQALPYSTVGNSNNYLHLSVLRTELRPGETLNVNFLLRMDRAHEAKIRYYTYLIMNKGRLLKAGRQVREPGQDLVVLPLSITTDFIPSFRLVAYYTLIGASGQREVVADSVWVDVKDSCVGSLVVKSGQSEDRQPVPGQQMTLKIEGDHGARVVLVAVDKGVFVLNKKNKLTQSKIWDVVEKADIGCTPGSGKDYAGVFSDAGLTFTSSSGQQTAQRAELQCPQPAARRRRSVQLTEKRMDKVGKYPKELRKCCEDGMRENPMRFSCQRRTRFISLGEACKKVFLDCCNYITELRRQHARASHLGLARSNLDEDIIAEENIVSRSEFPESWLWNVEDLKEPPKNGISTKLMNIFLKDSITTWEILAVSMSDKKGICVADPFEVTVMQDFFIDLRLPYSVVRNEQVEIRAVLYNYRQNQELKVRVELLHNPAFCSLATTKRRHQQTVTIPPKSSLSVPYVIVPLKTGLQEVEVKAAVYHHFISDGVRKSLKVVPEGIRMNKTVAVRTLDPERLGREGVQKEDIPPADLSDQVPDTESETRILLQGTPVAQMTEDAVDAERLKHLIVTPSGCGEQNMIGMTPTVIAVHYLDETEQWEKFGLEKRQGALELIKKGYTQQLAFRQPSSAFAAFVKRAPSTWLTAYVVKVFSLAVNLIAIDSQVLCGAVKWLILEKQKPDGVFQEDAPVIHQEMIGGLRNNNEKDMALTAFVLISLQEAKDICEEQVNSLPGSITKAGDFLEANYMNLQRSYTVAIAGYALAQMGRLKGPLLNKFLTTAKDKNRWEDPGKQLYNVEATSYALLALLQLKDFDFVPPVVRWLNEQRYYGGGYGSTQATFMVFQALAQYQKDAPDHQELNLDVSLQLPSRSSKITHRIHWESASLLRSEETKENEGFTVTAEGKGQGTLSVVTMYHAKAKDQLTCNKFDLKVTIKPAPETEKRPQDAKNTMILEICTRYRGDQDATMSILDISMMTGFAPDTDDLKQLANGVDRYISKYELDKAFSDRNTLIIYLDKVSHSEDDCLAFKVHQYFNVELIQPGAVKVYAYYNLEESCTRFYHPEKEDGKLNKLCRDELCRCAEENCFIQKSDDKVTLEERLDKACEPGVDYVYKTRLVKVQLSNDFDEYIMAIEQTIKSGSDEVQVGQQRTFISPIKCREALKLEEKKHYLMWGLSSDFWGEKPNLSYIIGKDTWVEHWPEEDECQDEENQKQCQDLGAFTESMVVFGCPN
Sequence (P00751 260-764, chain 2 of 2): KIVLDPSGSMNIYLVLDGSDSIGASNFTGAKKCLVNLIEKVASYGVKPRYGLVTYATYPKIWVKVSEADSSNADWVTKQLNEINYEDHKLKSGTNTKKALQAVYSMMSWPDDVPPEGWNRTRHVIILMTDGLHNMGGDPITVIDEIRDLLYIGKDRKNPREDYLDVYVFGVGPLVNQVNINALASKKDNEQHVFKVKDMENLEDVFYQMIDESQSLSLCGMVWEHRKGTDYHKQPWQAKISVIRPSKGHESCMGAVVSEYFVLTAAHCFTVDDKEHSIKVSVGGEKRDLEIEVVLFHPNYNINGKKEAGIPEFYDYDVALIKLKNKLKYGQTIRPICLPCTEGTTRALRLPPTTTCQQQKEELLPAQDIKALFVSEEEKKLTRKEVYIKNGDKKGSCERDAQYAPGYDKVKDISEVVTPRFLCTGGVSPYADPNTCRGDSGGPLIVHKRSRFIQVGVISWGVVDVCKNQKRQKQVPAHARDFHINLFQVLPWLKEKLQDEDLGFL
For C3 convertase activity % of the control in this document: test concentration or dose not given here.

| C3 convertase activity % of the control | C3 convertase activity IC50 | Binder |
| --- | --- | --- |
| 45 % of the control | 0.776 µg/mL | B1 |
| 42 % of the control | 0.228 µg/mL | B2 |
| 38 % of the control | 0.244 µg/mL | B3 |
| 30 % of the control | 0.307 µg/mL | B4 |
